In experiment [1] the target is T1, recombinant human sPLA2-V (human, UniProt P39877 21-138).
T1 construct: The cDNA for the mature enzyme was cloned in frame to an initiator Met codon; also called hGV; human PLA2-V
T1 sequence: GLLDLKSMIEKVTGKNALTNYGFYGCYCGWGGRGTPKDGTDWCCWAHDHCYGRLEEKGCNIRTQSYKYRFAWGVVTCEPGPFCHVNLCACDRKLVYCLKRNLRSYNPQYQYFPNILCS
Description: indirect ELISA on coated recombinant human sPLA2-V, one-site saturation fit (relative Kd).

Experiment [2] addresses T1, recombinant human sPLA2-V. The experiment is described as follows: indirect ELISA on coated recombinant human sPLA2-V, anti-mouse IgG-HRP detection, one-site saturation fit.
Experiment [3] concerns the target T1, recombinant human sPLA2-V. The experiment is described as follows: indirect ELISA on coated recombinant human sPLA2-V, streptavidin-HRP detection, one-site saturation fit. (In an ELISA, binding on a coated surface is turned into a signal by an enzyme label.)

B1: 19F3 antibody (antibody, V domains shown)
VH: EVQLQLSGADLVKPGASVKLSCTASGFNIKDSYIHWVKQRPEPGLEWIGRIDPANGNTKYDPKFQGKATITADTSSNTAYLQLTSLTSEDTAVYYCARDVVALDYWGQGTTLTVSS
VL: QIVLTQSPAIMSASPGEKVTMTCSASSSVSYMYWYQQKPGSSPRLLIYDTSNLASGVPVRFSGSGSGTSYSLTISRMEAEDAATYYCQQWSSYPLTFGAGTKLELKR
notes: also called mAb #19F3; hybridoma CNCM I-4522
In the case of B1, the Kd in experiment [1] worked out at 84.2 pM; in experiment [2] it was 89 pM.

B2: biotinylated monoclonal antibody #18G6 (antibody, V domains shown)
VH: QVQLQQSGPELVKPGASVKMSCKASGYTFTDYVITWVKQRTGQGLEWIGEIYPGSGSTYYDEKFKGKATLTADKSSNTAYMQLSSMTSEDSAVYFCARWFPYFDYWGQGTTLTVSS
VL: QIVLTQSPAIMSASPGEKVTISCSASSSVSYMYWYQQKPGSSPKPWIYRTSNLASGVPARFSGSGSGTSYSLTISSMEAEDAATYYCQQYHSYPLTFGAGTKLELKR
modifications: biotinylated with a Pierce kit (ref. 21435); sites not stated
notes: also called #18G6-Biot; 18G6-Biot
On to B2, for which the Kd in experiment [3] was 310 pM.

B3: biotinylated monoclonal antibody #19F3 (antibody, V domains shown)
VH: EVQLQLSGADLVKPGASVKLSCTASGFNIKDSYIHWVKQRPEPGLEWIGRIDPANGNTKYDPKFQGKATITADTSSNTAYLQLTSLTSEDTAVYYCARDVVALDYWGQGTTLTVSS
VL: QIVLTQSPAIMSASPGEKVTMTCSASSSVSYMYWYQQKPGSSPRLLIYDTSNLASGVPVRFSGSGSGTSYSLTISRMEAEDAATYYCQQWSSYPLTFGAGTKLELKR
modifications: biotinylated with a Pierce kit (ref. 21435); sites not stated
notes: also called #19F3-Biot; 19F3-Biot
Turning to B3, the Kd in experiment [3] was found to be 8.2 pM.

B4: 18G6 antibody (antibody, V domains shown)
VH: QVQLQQSGPELVKPGASVKMSCKASGYTFTDYVITWVKQRTGQGLEWIGEIYPGSGSTYYDEKFKGKATLTADKSSNTAYMQLSSMTSEDSAVYFCARWFPYFDYWGQGTTLTVSS
VL: QIVLTQSPAIMSASPGEKVTISCSASSSVSYMYWYQQKPGSSPKPWIYRTSNLASGVPARFSGSGSGTSYSLTISSMEAEDAATYYCQQYHSYPLTFGAGTKLELKR
notes: also called mAb #18G6; hybridoma CNCM I-4521
B4: the Kd in experiment [1] came out at 305 pM; in experiment [2], 530 pM.

Broadly, the Kd is the constant that tells how readily two partners part at equilibrium.

(Values after US20140356379A1 (CENTRE NATIONAL DE LA RECHERCHE SCIENTIQUE CNRS, published 2014).)
